Numbering of substitutions follows the chain as printed. Names and notes keep the numbering of the source.
B1: ROPY (RFP-OP18-YFP) FRET sensor: stathmin/oncoprotein18 (OP18) with sYFP2 donor and mScarlet-I R125I acceptor (natural protein)
chain: MASSDIQVKELEKRASGQAFELILSPRSKESVPDFPLSPPKKKDLSLEEIQKKLEAAEERRKSHEAEVLKQLAEKREHEKEVLQKAIEENNNFSKMAEEKLTHKMEANKENREAQMAAKLERLREKDKHVEEVRKNKESKDPADETEAD
B2: ROPY-4E, phospho-mimetic variant of ROPY with four serines mutated into glutamic acids (natural protein)
chain: B1 chain with S16E, S25E, S38E, S63E
B3: ROPY-4A, phospho-blocking variant of ROPY with four serines mutated into alanines (natural protein)
chain: B1 chain with S16A, S25A, S38A, S63A

Target: free tubulin heterodimers (human (endogenous in HEK293T and HeLa)) (UniProt P68363)
Sequence of UniProt P68363 (P68363 whole entry, chain 1 of 2): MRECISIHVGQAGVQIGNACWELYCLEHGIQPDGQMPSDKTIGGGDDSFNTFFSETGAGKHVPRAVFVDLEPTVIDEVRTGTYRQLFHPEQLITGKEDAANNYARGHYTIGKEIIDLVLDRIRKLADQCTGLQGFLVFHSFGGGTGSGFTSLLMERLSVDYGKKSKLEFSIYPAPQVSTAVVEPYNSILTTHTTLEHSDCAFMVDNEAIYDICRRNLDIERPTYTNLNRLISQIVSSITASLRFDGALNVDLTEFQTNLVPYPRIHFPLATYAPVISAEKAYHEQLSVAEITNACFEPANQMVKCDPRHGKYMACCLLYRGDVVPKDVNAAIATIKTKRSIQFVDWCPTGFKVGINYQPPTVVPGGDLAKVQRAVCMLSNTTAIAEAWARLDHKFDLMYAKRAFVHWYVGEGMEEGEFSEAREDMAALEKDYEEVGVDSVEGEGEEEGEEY
Sequence of UniProt P68363 (P07437 whole entry, chain 2 of 2, further chain): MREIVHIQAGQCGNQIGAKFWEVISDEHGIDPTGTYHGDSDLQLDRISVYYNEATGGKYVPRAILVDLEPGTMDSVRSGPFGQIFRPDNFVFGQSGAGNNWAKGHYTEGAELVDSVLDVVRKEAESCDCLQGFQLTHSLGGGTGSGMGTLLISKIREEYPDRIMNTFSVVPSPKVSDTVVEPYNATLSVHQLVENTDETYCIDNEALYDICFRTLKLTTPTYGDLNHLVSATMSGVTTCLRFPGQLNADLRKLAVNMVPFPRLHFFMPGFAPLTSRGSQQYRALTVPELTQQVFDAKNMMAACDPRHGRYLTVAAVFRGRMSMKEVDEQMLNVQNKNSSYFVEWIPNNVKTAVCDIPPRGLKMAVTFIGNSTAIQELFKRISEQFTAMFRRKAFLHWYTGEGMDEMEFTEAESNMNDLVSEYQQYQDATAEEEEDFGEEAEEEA

Relative FRET increase (RFP/YFP ratio of the intramolecular sensor) after 10 µM paclitaxel for 1 h, HEK293T cells	Binder
1.11	B1
1.01	B2
1.15	B3

Source: PMC7138840
